# Laboratory results as given in PMC9844003.
# How the values were obtained:
# [1] = target: extracellular domain of CD47 fused to a His(×6)-Avi-tag (human); test: ELISA; pH 6.2
# [2] = target: extracellular domain of CD47 fused to a His(×6)-Avi-tag (human); test: ELISA; pH 6.4
# [3] = target: extracellular domain of CD47 fused to a His(×6)-Avi-tag (human); test: ELISA; pH 6.6
# [4] = target: extracellular domain of CD47 fused to a His(×6)-Avi-tag (human); test: ELISA; pH 6.8
# [5] = target: extracellular domain of CD47 fused to a His(×6)-Avi-tag (human); test: ELISA; pH 7.0
# [6] = target: extracellular domain of CD47 fused to a His(×6)-Avi-tag (human); test: ELISA; pH 7.2
# [7] = target: extracellular domain of CD47 fused to a His(×6)-Avi-tag (human); test: ELISA; pH 7.4
# [8] = target: extracellular domain of CD47 fused to a His(×6)-Avi-tag (human); test: ELISA; pH 7.6
# extracellular domain of CD47 fused to a His(×6)-Avi-tag (human), sequence (Q08722 19-141): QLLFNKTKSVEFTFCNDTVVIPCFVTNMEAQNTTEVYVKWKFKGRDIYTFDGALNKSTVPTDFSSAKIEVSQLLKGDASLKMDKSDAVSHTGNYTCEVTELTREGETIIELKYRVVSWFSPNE
substance,measurement,setting,value
Hu5F9,EC50,[1],0.04 nM
same,EC50,[2],0.04 nM
same,EC50,[3],0.04 nM
same,EC50,[4],0.03 nM
same,EC50,[5],0.04 nM
same,EC50,[6],0.03 nM
same,EC50,[7],0.04 nM
same,EC50,[8],0.04 nM
